Measurements published in the nanobody polyreactivity screen of Harvey et al. (2022).

Assay: yeast display, Sf9 membrane polyspecificity reagent, FACS + sequencing; frameworks hold sequencing errors
Procedure, shortened: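 Nanobodies came from a synthetic yeast display library in Saccharomyces cerevisiae BJ5465, induced with galactose for 36–48 hours and stained for 1 hour at 4 °C with 10% biotinylated, detergent-solubilized Sf9 membrane reagent. Cells were enriched on streptavidin microbeads and then FACS-sorted, with low and high (top ~1%) gates set on anti-HA fluorescence for expression and streptavidin fluorescence for reagent binding. Each polyreactivity label reflects the gate a clone came from. Genes were amplified by colony PCR, sequenced by MiSeq 2 × 250 and filtered by CDR length.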

Sequence | polyreactivity (PSR sort gate)
QVQLVESGRGLVQAGGSLRLSCAASGRTFPFYAMGWYRQAPGKEREFVAAITASGDSTYYADSVKGRFTISRDNAKNTVYFQMHSLKPEDTAVYYCAADLPVWYVTRYDYWGQATQVTVSS | low polyreactivity
QVQLVESGRGLVQAGGSLRLSCAASGRTFRGNAMGWYREAPGKERELVAAIRYRGGSTYYADSVKGRFTISRDNAKNTVYLQMNSLKPEDTAVYYCARRYTVHTQHYDYWGQGTQVNVSS | high polyreactivity
QVQLVESGRGLVQAGGSLRLSCAASGRTFWIYAMGWYRQAPGKERELVAAISRGGSTYADSVKGRFTISRDNAKNTVYLQMNSLKPEDTAVYYCAASTPQYQYYYWGQGTQVTVSS | high polyreactivity
QVQLVESGRGLVQAGGSLRLSCAASGRTFWTYTMGCYRQAPWKEREFVAAITFGDGSTSYADYVKGRFTISRDNAKNTVFLQMNSLKQEDTAVYYCAKRWRRRFVDVWSLYDYWGHGTQVTVSS | low polyreactivity
QVQLVESGRGLVQAGGSLRLSCAASGRTFYSNTMGWSRQAPGKERELVAVISNGGSTYYADSVKGRFTISRDNAKYTVYLQMNSLKPEETAVYYCAARSRDRYRGNYWGQGTQVTVSS | high polyreactivity
QVQLVESGRGLVQAGGSLRLSCAASGRTFYYYAMGWYRQAPGKERELVAAISRSGTRTYYADSVKGRFTISRDNAKNTVYLQMNSLKPEDTAVYYCAAVGAAGQDNYWGQGTQVTVSS | high polyreactivity
QVQLVESGRGLVQAGGSLRLSCAASGSIFGRNAMGWYRQAPGKERELVAAITWRGGRTYYADSVKGRFTISRDNAKNTVYLQMNSLKPEDTAVYYCAAVVAYQYTGYRFDYWGQGTQVTVSS | high polyreactivity
QVQLVESGRGLVQAGGSLRLSCAASGSIFYYLAKGWYRQAPGKERELVAVIDFSGASTSYADSVKGRFTISRDNAKNTVYLQMNSLKPEDTAVYYCAADRFRRKVRVDYWGQGTQVTVSS | low polyreactivity
QVQLVESGRGLVQAGGSLRLSCAASGSILVFYAMGWYRQAPGKERELVATITGSVGRTSYADSVKGRFTISRDNAKNTVYLQMNSLKPEDSAVYYCAADADTDVFYILQEYDYWGQGTQVTVSS | low polyreactivity
QVQLVESGRGLVQAGGSLRLSCAASGSTFKDYPMGWYRQAPGKESELVARISTRVGSTYYPDSVKGRFTISRDNAKNTVYLQMNRLNPEDTAVFYCNARWWYPPYYYWGQGTQVSVSS | high polyreactivity
QVQLVESGRGLVQAGGSLRLSCAASGSTFLDYAMGWYRQAPGKERELVAAINGSGSRTYYADSVKGRFTISRDNAKNTVYLQMNRLKPEDTAVYYCAHEYGYWGQGTQVTVSS | low polyreactivity
QVQLVESGRGLVQAGGSLRLSCAPSGSTIQDYAMGWYRQAPGKERELVAAISWRSDITYYAESVKGRFTISRDNAKNTVYLQMNSLKPEDTAVYYCAADNSYHWLDREFDYEFDYWGQGTQVTVSS | high polyreactivity
QVQLVESGRGLVQAGGSLRLSCASSGFTLSPNAMRWYRPAPGKEREFVAAISQRGGSTYYADSVKGRFTISRDNAKNTVYLQMNSLKPEDTAVYYCARDTKYKYDFWGQGTQVTVSS | low polyreactivity
QVQLVESGRGLVQAGGSLRLSSAASGRIFPTNAMGWYRQAPGKERELVASIDSGDITHYADSVKGRFTISRDNAMNTVYLQMISLKPEDTAVYYCAKRPQAQYTYITGDDYWGQGTQVTVSS | low polyreactivity
QVQLVESGRGLVQAGGSLRLTCAASGRIFYLNAMGGYRQAPGKERELVAGITNSTTGTYYADSVKGRFTIARDNAKNTVYLQMNSLKPVDTAVYYCNTDVAYEEPVETYDYWGQGTQVTVSS | low polyreactivity
QVQLVESGRGLVQAGGSLRLTCAASGSTFTANDMGGSRPATGTERELFADISSGDGTNYADSVKGRFTISRDNAKNTVYLQMISLKPEDTAVYYCAKDVYNFRTTHSYFTGYDSWGHGTQVTVSS | low polyreactivity
QVQLVESGRGLVQAGGSLSLSCAASGRIFYYYVMGWYRQAPGKERELVAVIDWSGGSTYYADSVKGRFTISRVNAKNTVYLQMNSLKPEDTAVYYCAKVGLNFSLAYEDYDYWGQGTQVTVSS | low polyreactivity
QVQLVESGRGLVQAGGSRRLSCAASGSIITWNAMARYRQAPGKERELFAAIDWDGGSTYYADSVKGRFTISRDNAKNTVYFQMNSLKPEDTAVYYCAATYGWYTGRYPSGHYYYWGQGTQVTVSS | low polyreactivity
QVQLVESGRGLVQAGGTLRLSCAASGRIFYWNAMGWYRQAHGKERELVAAISWSGGSTYYADSVKGRFTISRDNAKNTVYLQMNSLKPEDTAVYYCAADGGRRTYYVKYDYWGQGTQVTVSS | low polyreactivity
QVQLVESGRGLVQAGGTLRLSCAASGSIFGYYAMGWYRQAPGKERELVASISGSGGTTYYADSVKGRFTISRDNAKNTVYLQMNSLNPEDTAVYYCAARRSIYGYPFVTSRRGYWGQGTQVTVSS | high polyreactivity
QVQLVESGRGLVQAGVSLRLSCASSGSTFTLNVMGWYRKAPVKERELVAGFSKRGGNTYYADSVKGRFTISRDYAKNTVYLQMNRLKPEDTAVYFCAKRQGVGYGYYYLGQGTQVTVSS | high polyreactivity

Sequence | polyreactivity (PSR sort gate)
QVQLVESGRGLVRAGGSLRLSCAASGRTFGVYAMGWYRQAPGKERELVASIRYSGVSTYYADSVKGRFTISRDNAKNTVYLQMNSLKPEDTAVYYCAARYRSRRVDYGYDYWGQGTQVTVSS | high polyreactivity
QVQLVESGTGLVQAGGSLRLSCADSGITFVFYSMGSYRQAPGKESELVATISYRGTSTYYADSVKGLFTISRDNAKNSVSLQMNSLKPEDTAVYYCAADTFIYYKTGYGYWGQGTQVTVSS | low polyreactivity
QVQLVESGVCLVQAGGSLRLSCAASGFTYYFYTMGWYRQAPGKERELVARITARGGSTYYADSVKGRFTISRDNAKNTVYLQMNSLKPEDTAVYYCAAVTYFGWYPYRMEYWGQGTQVTVSS | high polyreactivity
QVQLVESGVGIVQAGGSLRLSCAASGFTFDNYVMGWYRQAPGKERELVAAISTGSRTYYADSVKGRFTISRDNAKNTVYLQMNSLKPEDTAVYYCAASYVRRSWYSNDYWGQGTQVTVSS | high polyreactivity
QVQLVESGVGLDQAGGSLRLSCAASGSIFRRYAMGWYRQAHGKERELVAAISSNGGSTYYADSVKGRFTISRDNAKNTVYLQMNSLKPEDTAVYYCTAPPLYRDEYWGQGTQVTVAS | high polyreactivity
QVQLVESGVGLDQAGGSLRLSCAASGSIIWYYAMGWYRQAPGKERELVAAITVSGGSTYYADSVKGRFTISRDNAKNTVYLEMNTLKPEDTAVYYCAALYISLSGDEYDYWGQGTQVTVSS | low polyreactivity
QVQLVESGVGLLQAGGSLSLSCSASGSTLYYAMGWYRQAPGKERELVASITFSTGSTYYADSVKGRFTISRDNAKNTVYLQMNSLKPEDTAVYYCATGVDTYYLTVEHDSWGQGTQVTVSS | low polyreactivity
QVQLVESGVGLVKAGGSLRLSCAASGITFGFYAMGWYRQAPGKDRELVASISSRGGSTNYADSVKGRFTISRDNAKNTVYLQMNSLKPEDTAVYYCAVAWLVRGGGGRRTFYSWGQGTQVTVSS | high polyreactivity
QVQLVESGVGLVQAAGSLRLSCAASGRIFKYYAMGWYRQAPGKERELVATISRGSRTNYADSVKGRFTISRDNAKNTVYLQMNSLKPEDTAVYYCAAQRLSASRPYGYWGQGTQVTVSS | high polyreactivity
QVQLVESGVGLVQAGGSHRLSSGASGSIFSSYAMGWYRQEPVKERELVADISQSGGDTYYADSVQGRFTISRDNANNTVYLQRNSLKPEDNAVYYCAASVWYYPMDYWGKGTQVTVSS | low polyreactivity
QVQLVESGVGLVQAGGSLLLSCAASGRIFRVYAMGWYRQAPGKERELVAAISWSGGRTYYADSVKGRFTISRDNAKNTVYLQMNSLKPEDTAVYYCAAERCGPTYYSGGDYDYWGQGTQVTVSS | high polyreactivity
QVQLVESGVGLVQAGGSLRISCAASGRIYRSNAMGWYRQAPGKERELLAAISSNGGSTYYADSVKGRFTISRDNAKNTVYLQMNSLKPEDTAVYYCAARVYYPVRYGYWGQGTQVSVSS | high polyreactivity
QVQLVESGVGLVQAGGSLRLICAASGRTFAYYAMGWYRQAPGKERELVAAISSGGRTNYADSVKGRFTISRDNAKNTVYLQMNSLKPEDTAVYYCARKASYQIYNGQYGGFGYGYWGQGTQVTVSS | high polyreactivity
QVQLVESGVGLVQAGGSLRLICDASGRIYSYYAIGWYRQAPGKETELVASISRSGGSTYYADSVKGRFTISRDNAKNTVYLQMNSLKPEETAVYYCAAYKYVRSYPYDYWGQGTQVTVSS | low polyreactivity
QVQLVESGVGLVQAGGSLRLRCAASGSIFRRYAMGWYRQAPGKERELVARITSSSGTTTYADSVKGRFTISRYNSKNNVYLQMNSLKPEDTAVYYCAAAWWHAYYGKNYYWGQGTQVTVSS | high polyreactivity
QVQLVESGVGLVQAGGSLRLSCAASGFIFPYYTMGWYRQAPGKERELVAAISASSGRTYYADSVKGRFTISSDNAKNTVYLQMNSLKPEDTAVYYCAAKTYEPRKYEYWGQGTQVTVSS | high polyreactivity
QVQLVESGVGLVQAGGSLRLSCAASGFLIRYYAMGWYRQAPGKERELVASIDWSGGNTYYADSVKGRFTSSRDKAKITVYFQMNSLKPEDTAVYSCNRRGMDWGQGTQVNVSS | low polyreactivity
QVQLVESGVGLVQAGGSLRLSCAASGFTFARYAMGRYRQAPGKEREFVAAISLSTTSTYYADSVKGRFTISRDYANNNVFLQMNSLKPEDTAVYYCATDIVGPHFDYWGQGTQVSVSS | low polyreactivity
QVQLVESGVGLVQAGGSLRLSCAASGFTFYPYAMGWYRQAPGKERELVASITNGGSTNYADSVKGRFTISRDNAKNTVYLQMNSLKPEDTAVYYCTAAYGFYASRYWYASYDYWGQGTQVTVSS | low polyreactivity
QVQLVESGVGLVQAGGSLRLSCAASGIITFYNAMGWYRQAPGKERELVAAITWSGGSTYYADSVKGRFTISRDNAKNTVYVQLNSLKPEDTAVYYCAADVVSVVYLPFVNGGDYWGLGTQVTVSS | low polyreactivity
